A value given as a limit tells only on which side of the number the result lay.

Holding throughout (assay): BLI
A general note: BLI is a label-free optical method that tracks binding on a fibre tip over time.

For test [1], the target named is recombinant HA protein of A/Hong Kong/45/2019 (H3N2) (influenza A virus A/Hong Kong/45/2019 (H3N2)).
The target in test [2] is recombinant HA protein of A/New Caledonia/20/1999 (H1N1) (influenza A virus A/New Caledonia/20/1999 (H1N1)).
The target of test [3] is recombinant HA protein of A/Aichi/2/1968 (H3N2) (influenza A virus A/Aichi/2/1968 (H3N2)) (UniProt P03437).
Test [4] has as its target recombinant HA protein of A/Beijing/262/1995 (H1N1) (influenza A virus A/Beijing/262/1995 (H1N1)).

Broadly, the Kd is the equilibrium constant for the complex coming apart. Take IgG-F045-092 (antibody): in test [1], the Kd stood at 12500 pM.
Turning to “IgM-F045-092 (from UniProt P01591 23-159) (antibody)”, the Kd in test [2], in test [3], in test [4] and in test [1] was below 1 pM in each case.

The values above are taken from PMC12041195.
